Results published in patent US20190202883A1 (Takeda / Millennium, published 2019).
Square brackets hold non-standard residues; d marks the D form. Side chains are listed from the residue outwards. αMeF = C[C@](N)(Cc1ccccc1)C(=O)O; Iva = CC[C@](C)(N)C(=O)O; Oda = not defined here; Aib = CC(C)(N)C(=O)O

T1: human NPY2R (human, UniProt P49146 1-381)
T1 sequence (looked up): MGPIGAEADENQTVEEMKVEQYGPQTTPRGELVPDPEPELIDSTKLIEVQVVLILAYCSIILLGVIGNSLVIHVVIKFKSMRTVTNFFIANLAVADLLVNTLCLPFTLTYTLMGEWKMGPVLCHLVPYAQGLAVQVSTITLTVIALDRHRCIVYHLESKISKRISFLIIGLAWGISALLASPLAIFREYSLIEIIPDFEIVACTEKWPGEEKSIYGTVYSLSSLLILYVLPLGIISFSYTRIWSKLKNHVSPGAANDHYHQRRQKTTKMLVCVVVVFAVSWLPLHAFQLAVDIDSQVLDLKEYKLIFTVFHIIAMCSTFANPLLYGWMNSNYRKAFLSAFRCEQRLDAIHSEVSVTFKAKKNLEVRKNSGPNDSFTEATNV

T2: human GIPR (human, UniProt P48546 22-466)
T2 sequence (looked up): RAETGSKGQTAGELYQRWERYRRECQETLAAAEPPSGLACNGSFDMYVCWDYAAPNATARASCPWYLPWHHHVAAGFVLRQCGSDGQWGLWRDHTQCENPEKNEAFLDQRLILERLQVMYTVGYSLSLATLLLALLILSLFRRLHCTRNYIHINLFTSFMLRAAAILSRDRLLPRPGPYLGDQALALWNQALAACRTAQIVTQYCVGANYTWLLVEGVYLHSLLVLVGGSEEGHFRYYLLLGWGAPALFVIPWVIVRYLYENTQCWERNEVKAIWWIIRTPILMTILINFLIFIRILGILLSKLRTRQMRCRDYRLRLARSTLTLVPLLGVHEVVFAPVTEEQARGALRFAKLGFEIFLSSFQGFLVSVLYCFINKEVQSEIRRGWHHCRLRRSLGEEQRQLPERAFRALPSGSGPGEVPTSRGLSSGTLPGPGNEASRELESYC

B1: Me-Tyr-Aib-Glu-Gly-Thr-αMePhe-Thr-Ser-Asp-Lys(-Gly-Gly-Gly-Gly-Oda)-Ser-Lys-Aib-Leu-Asp-Lys-Gln-Arg-Gln-Iva-Glu-Phe-Val-Arg-His-Leu-Leu-Asn-Lys-Aib-Thr-Arg-Gln- … (peptide)
peptide: Me-Y[Aib]EGT[αMeF]TSDK([Gly-Gly-Gly-Gly-Oda])SK[Aib]LDKQRQ[Iva]EFVRHLLNK[Aib]TRQRY-NH2
modifications: reading uncertain; also: printed as Me-Tyr-Aib-Glu-Gly-Thr-αMePhe-Thr-Ser-Asp-Lys(-Gly-Gly-Gly-Gly-Oda)-Ser-Lys-Aib-Leu-Asp-Lys-Gln-Arg-Gln-Iva-Glu-Phe-Val-Arg-His-Leu-Leu-Asn-Lys-Aib-Thr-Arg-Gln-Arg-Tyr-NH2
B2: Me-Tyr-Aib-Glu-Gly-Thr-αMePhe-Thr-Ser-Asp-Lys(-Gly-Gly-Gly-Gly-Oda)-Ser-Ile-Aib-Leu-Asp-Lys-Gln-Arg-Gln-Iva-Glu-Phe-Val-Arg-His-Leu-Leu-Asn-Lys-Aib-Thr-Arg-Gln- … (peptide)
peptide: Me-Y[Aib]EGT[αMeF]TSDK([Gly-Gly-Gly-Gly-Oda])SI[Aib]LDKQRQ[Iva]EFVRHLLNK[Aib]TRQRY-NH2
modifications: reading uncertain; also: printed as Me-Tyr-Aib-Glu-Gly-Thr-αMePhe-Thr-Ser-Asp-Lys(-Gly-Gly-Gly-Gly-Oda)-Ser-Ile-Aib-Leu-Asp-Lys-Gln-Arg-Gln-Iva-Glu-Phe-Val-Arg-His-Leu-Leu-Asn-Lys-Aib-Thr-Arg-Gln-Arg-Tyr-NH2
B3: H-Tyr-Aib-Glu-Gly-Thr-αMePhe-Thr-Ser-Asp-Lys(-Gly-Gly-Gly-Gly-Oda)-Ser-Lys-Aib-Leu-Asp-Lys-Gln-Arg-Gln-Iva-Glu-Phe-Val-Arg-His-Leu-Leu-Asn-Lys-Aib-Thr-Arg-Gln-A … (peptide)
peptide: H-Y[Aib]EGT[αMeF]TSDK([Gly-Gly-Gly-Gly-Oda])SK[Aib]LDKQRQ[Iva]EFVRHLLNK[Aib]TRQRY-NH2
modifications: reading uncertain; also: printed as H-Tyr-Aib-Glu-Gly-Thr-αMePhe-Thr-Ser-Asp-Lys(-Gly-Gly-Gly-Gly-Oda)-Ser-Lys-Aib-Leu-Asp-Lys-Gln-Arg-Gln-Iva-Glu-Phe-Val-Arg-His-Leu-Leu-Asn-Lys-Aib-Thr-Arg-Gln-Arg-Tyr-NH2

These binders were tested against T1, human NPY2R (assay: cell-based or functional assay).

Row | Binder | Agonist activity (EC50), Cre-luc reporter assay
1 | H-Y[Aib]EGT[αMeF]TSDK([Gly-Gly-Gly-Gly-Pal])SI[Aib]LDKQRQ[Iva]EFVRHLLNK[Aib]TRQRY-NH2 | 0.048 nM
2 | Me-Y[Aib]EGT[αMeF]TSDK([Gly-Gly-Gly-Gly-Pal])SI[Aib]LDKQRQ[Iva]EFVRHLLNK[Aib]TRQRY-NH2 | 0.081 nM
3 | Me-Y[Aib]EGT[αMeF]TSDK([Gly-Gly-Gly-Gly-Pal])AI[Aib]LDKQRQ[Iva]EFVRHLLNK[Aib]TRQRY-NH2 | 0.1 nM
4 | B1 | 1.2 nM
5 | B2 | 2.4 nM
6 | B3 | 1.3 nM
7 | Me-Y[Aib]EGT[αMeF]TSDK([Gly-Gly-Gly-Gly-Pal])[Aib]K[Aib]LDKQRQ[Iva]EFVRHLLNK[Aib]TRQRY-NH2 | 0.068 nM
8 | H-Y[Aib]EGT[αMeF]TSDK([Gly-Gly-Gly-Gly-Pal])AI[Aib]LDKQRQ[Iva]EFVRHLLNK[Aib]TRQRY-NH2 | 0.099 nM
9 | H-Y[Aib]EGT[αMeF]TSDK([Gly-Gly-Gly-Gly-Pal])[Aib]I[Aib]LDKQAQ[Iva]EFVRHLLNK[Aib]TRQRY-NH2 | 0.038 nM

Each binder was assayed against T2, human GIPR (assay: cell-based or functional assay).

Row | Binder | Agonist activity (EC50), Cre-luc reporter assay
10 | H-Y[Aib]EGT[αMeF]TSDK([Gly-Gly-Gly-Gly-Pal])SI[Aib]LDKQRQ[Iva]EFVRHLLNK[Aib]TRQRY-NH2 | 0.056 nM
11 | Me-Y[Aib]EGT[αMeF]TSDK([Gly-Gly-Gly-Gly-Pal])SI[Aib]LDKQRQ[Iva]EFVRHLLNK[Aib]TRQRY-NH2 | 0.05 nM
12 | Me-Y[Aib]EGT[αMeF]TSDK([Gly-Gly-Gly-Gly-Pal])AI[Aib]LDKQRQ[Iva]EFVRHLLNK[Aib]TRQRY-NH2 | 0.074 nM
13 | B1 | 0.38 nM
14 | B2 | 0.091 nM
15 | B3 | 0.61 nM
16 | Me-Y[Aib]EGT[αMeF]TSDK([Gly-Gly-Gly-Gly-Pal])[Aib]K[Aib]LDKQRQ[Iva]EFVRHLLNK[Aib]TRQRY-NH2 | 0.051 nM
17 | H-Y[Aib]EGT[αMeF]TSDK([Gly-Gly-Gly-Gly-Pal])AI[Aib]LDKQRQ[Iva]EFVRHLLNK[Aib]TRQRY-NH2 | 0.066 nM
18 | H-Y[Aib]EGT[αMeF]TSDK([Gly-Gly-Gly-Gly-Pal])[Aib]I[Aib]LDKQAQ[Iva]EFVRHLLNK[Aib]TRQRY-NH2 | 0.041 nM

These binders were tested against human GLP-1R (human, UniProt P43220 24-463) (assay: cell-based or functional assay).

Row | Binder | Agonist activity (EC50), Cre-luc reporter assay
19 | H-Y[Aib]EGT[αMeF]TSDK([Gly-Gly-Gly-Gly-Pal])SI[Aib]LDKQRQ[Iva]EFVRHLLNK[Aib]TRQRY-NH2 | 0.05 nM
20 | Me-Y[Aib]EGT[αMeF]TSDK([Gly-Gly-Gly-Gly-Pal])SI[Aib]LDKQRQ[Iva]EFVRHLLNK[Aib]TRQRY-NH2 | 0.049 nM
21 | Me-Y[Aib]EGT[αMeF]TSDK([Gly-Gly-Gly-Gly-Pal])AI[Aib]LDKQRQ[Iva]EFVRHLLNK[Aib]TRQRY-NH2 | 0.1 nM
22 | B1 | 4.5 nM
23 | B2 | 1.9 nM
24 | B3 | 1.3 nM
25 | Me-Y[Aib]EGT[αMeF]TSDK([Gly-Gly-Gly-Gly-Pal])[Aib]K[Aib]LDKQRQ[Iva]EFVRHLLNK[Aib]TRQRY-NH2 | 0.069 nM
26 | H-Y[Aib]EGT[αMeF]TSDK([Gly-Gly-Gly-Gly-Pal])AI[Aib]LDKQRQ[Iva]EFVRHLLNK[Aib]TRQRY-NH2 | 0.079 nM
27 | H-Y[Aib]EGT[αMeF]TSDK([Gly-Gly-Gly-Gly-Pal])[Aib]I[Aib]LDKQAQ[Iva]EFVRHLLNK[Aib]TRQRY-NH2 | 0.042 nM
